According to patent publication US20130004947A1, “LUCIFERASE-LINKED ANALYSIS OF DNA-METHYLTRANSFERASE, PROTEIN METHYLTRANSFERASE AND S-ADENOSYLHOMOCYSTEINE AND USES THEREOF” (priority 2010, published 2013):
“And” between values parts separate entries of the source, which are not always exact repeats. Equal entries are not always repeated. Where two headings read alike, the source gives them in different places.

Assays:
Type in all cases: biochemical
AdoMet and poly(dIdC) [1] = test: continuous luciferase-linked AdoHcy assay of DNMT kinetics; settings: for activity of catalytic domain alone (initial reaction rates): without DNMT3L, even at high substrate and enzyme concentrations
Protocol: AdoHcy to ATP Conversion Buffer. The 2×AdoHcy to ATP conversion buffer was prepared as previously described with minor modifications (17). In brief, 100 mL of buffer contained 100 mM Tris-acetate pH 7.7, 2 mM PEP, 2 mM sodium pyrophosphate, 2 mM PRPP, 15 mM (NH4)2SO4, 15 mM (NH4)2MoO4, and phosphatase inhibitors (Roche PhosSTOP, 10 tablets). A 4:1 cellulose:charcoal mixture was suspended in water and packed into a disposable mini-column to a bed volume of 1.5 mL, through which a 10 mL aliquot of the previously prepared buffer was passed at 2 mL/min to remove traces of adenine, AMP, and ATP. Treated buffer was filtered (0.2 μm) and stored in 1 mL aliquots at −80° C. Immediately prior to use, the 2× conversion buffer was completed by additions to give final concentrations of 10 mM MgSO4, 6 U APRTase, 18 U PPDK, and 250 nM MTAN and an increase in volume of 14 μL.
DNMT Kinetics using Continuous Luciferase Assay. Continuous assay buffer (2×) was prepared by adding 200 μl luciferin/luciferase (ATPlite) to 1 mL of the AdoHcy to ATP conversion buffer and warmed to room temperature. To 25 μL of this mixture was added AdoMet and the DNA substrate in DNMT assay buffer (25 mM HEPES pH 7.6, 50 mM KCl, 5% glycerol, 0.1% DTT) in a 96-well non-binding surface microplate. The mixture was incubated at room temperature for 3 min to permit any contaminating adenine, AMP, ATP or 5′-methylthioadenosine (MTA) to be converted to a stable background light signal as measured in the kinetic acquisition mode of the luminometer for 3 min. DNMT was added to give a final volume of 50 μL. After 3 min, the luminescent signal was measured for the following 3 min. […] Initial rates were calculated by subtracting the background rate from that obtained after DNMT addition. Initial rates were fitted to the Morrison equation for tight binding substrates with the exception of data obtained while using M.SssI CpG methyltransferase which were fit to the Michaelis-Menten equation. The Morrison equation was used as high enzyme concentrations were necessary and it could no longer be assumed that free substrate concentration was equal to total substrate concentration. The kinetic parameters Km and Vmax were obtained from these fits after converting the luminescent rate (RLU/s) to an enzymatic rate (pmol AdoHcy/h) using the AdoHcy standard curve. The AdoHcy standard curve was constructed by mixing 25 μL of DNMT assay buffer containing varied concentrations of AdoHcy with 25 μL of continuous assay buffer, incubating for several minutes, and then measuring the luminescence of each sample in the discontinuous acquisition mode of the luminometer. Values were background corrected using a mixture containing no AdoHcy.

AdoMet and poly(dIdC) [2] = test: discontinuous luciferase-linked AdoHcy assay of DNMT1 rate; settings: 258 nM DNMT1, 682 nM AdoMet
Protocol: DNMT1 Rate Measurement using Discontinuous Luciferase Assay. DNMT1 was added to a solution of 682 nM AdoMet and 1 μg poly(dIdC) in DNMT assay buffer to a concentration of 258 nM in 300 μL total volume which had been equilibrated to 22° C. or 37° C. A control reaction containing no DNMT1 was also performed at 37° C. 15 μL aliquots of the reaction were quenched with 5 μL of 100 mM HCl at 2 min intervals from 2 to 10 min in triplicate. These were neutralized with 5 μL of 100 mM KOH and were mixed with 25 μL of 2×AdoHcy to ATP conversion buffer and incubated at room temperature for several minutes. 20 μL of each mixture were then mixed with 80 μL of ATPlite in a 96-well non-binding surface microplate. These mixtures were incubated at room temperature for several minutes and their luminescence was measured in the single measurement mode of the luminometer. […]
Initial reaction rates for human DNMT1 were measured both at room temperature and at 37° C. […] After incubation at room temperature for ˜3 min, the luminescence of each sample was measured and an initial rate plot was constructed (FIG. 5A). Initial rates measured in RLU/s were converted to units of pmol/h with an AdoHcy standard curve constructed under the same assay conditions (Table 2). […] The discontinuous rates were readily measured even at low AdoMet concentrations, and the assay is suitable for automated screening. […]

[3] = test system: [methyl-3H]AdoMet and poly(dIdC); test: radiometric filter paper assay of DNMT1 rate; settings: 258 nM DNMT1, 672 nM [methyl-3H]AdoMet
Protocol: DNMT1 Rate Measurement using Radiometric Assay. The same two reactions were prepared as above for the discontinuous luciferase assay with the exception that 672 nM S-adenosyl-1-[methyl-^3H]methionine was used in place of non-radioactive AdoMet. 15 μL aliquots were removed from each reaction in triplicate at 2 min intervals from 2 to 8 min and spotted on 2.3 cm diameter Whatman DE81 filter paper circles which were allowed to dry for 30 min. The circles were washed with 0.2 M NH4HCO3 (4×2 mL), water (4×2 mL), and absolute ethanol (1×2 mL); each wash lasted 5 min before decanting the liquid. Circles were then dried for 1 h, then placed in scintillation vials and covered with 10 mL Betaplate Scint scintillation fluid. Radioactivity was measured on a Tricarb scintillation counter and background was corrected with a no-enzyme control. A conversion factor of 12 CPM/fmol was used.
Parallel reactions were performed with 672 nM [methyl-^3H]AdoMet to compare the initial rates from the luciferase assay with those obtained from the radiometric filter paper assay (4, 5). Reactions were limited to approximately 700 nM AdoMet because of the concentration of the [methyl/-^3H]AdoMet stock solution. The luciferase-linked assays were performed at the same AdoMet concentration. […] The dried circles were analyzed for radioactivity in a scintillation counter. […]

activity of catalytic domain alone (initial reaction rates) (AdoMet and poly(dIdC) [1]) | Substance | Initial rate (AdoMet and poly(dIdC) [1]; continuous assay, 258 nM DNMT1, 682 nM AdoMet, 1 μg poly(dIdC) per 50 μL) | Vmax (AdoMet and poly(dIdC) [1]; room temperature) | kcat (AdoMet and poly(dIdC) [1]; room temperature) | Km (AdoMet and poly(dIdC) [1]; room temperature, 1 μg poly(dIdC), value as printed in the text, read-out: Km for AdoMet) | Km (AdoMet and poly(dIdC) [1]; room temperature, near saturating AdoMet: 35 μM for DNMT1, 10 μM for CD-DNMT3a/3b complexes with DNMT3L, read-out: Km DNA (poly(dIdC))) | Km (AdoMet and poly(dIdC) [1]; room temperature, near saturating poly(dIdC), dIdC base pair concentration 16.4 μM, read-out: Km AdoMet) | Initial rate (AdoMet and poly(dIdC) [2]; 22° C. (room temperature)) | Initial rate (AdoMet and poly(dIdC) [2]; 37° C.) | Initial rate ([3]; 22° C.) | Initial rate ([3]; 37° C.)
low activity | CD-DNMT3a: 286 amino acid C-terminal catalytic domain of human DNMT3a (residues 627-912), His6 tagged |  |  |  |  |  |  |  |  |  | 
low activity | CD-DNMT3b: 286 amino acid C-terminal catalytic domain of human DNMT3b (residues 568-853), His6 tagged |  |  |  |  |  |  |  |  |  | 
 | DNMT1: full-length human DNA (cytosine 5)-methyltransferase 1, N-terminal His6 tag, expressed in SF9 cells | 30 pmol/h and 30.1 pmol/h | 726 ± 75 pmol/h | 0.00778 ± 0.00083 s⁻¹ and 0.00781 s⁻¹ | 2.7 ± 0.7 µM | 0.84 µM and 0.837 µM | 2.66 ± 0.75 µM | 6.3 pmol/h and 6.26 pmol/h | 7.5 pmol/h and 7.52 pmol/h | 11.6 pmol/h | 13.0 pmol/h
